Data reported in patent publication US20140100265.

Biological target: ribosomal protein S6, P62754

B1: hp70S6K (delC/T389E), constitutively active form of human p70S6K protein (protein)
chain: MAGVFDIDLDQPEDAGSEDELEEGGQLNESMDHGGVGPYELGMEHCEKFEISETSVNRGPEKIRPECFELLRVLGKGGYGKVFQVRKVTGANTGKIFAMKVLKKAMIVRNAKDTAHTKAERNILEEVKHPFIVDLIYAFQTGGKLYLILEYLSGGELFMQLEREGIFMEDTACFYLAEISMALGHLHQKGIIYRDLKPENIMLNHQGHVKLTDFGLCKESIHDGTVTHTFCGTIEYMAPEILMRSGHNRAVDWWSLGALMYDMLTGAPPFTGENRKKTIDKILKCKLNLPPYLTQEARDLLKKLLKRNAASRLGAGPGDAGEVQAHPFFRHINWEELLARKVEPPFKPLLQSEEDVSQFDSKFTRQTPVDSPDDSTLSESANQVFLGFEYVAPSVLES
With B1 as the protein, how does the “phosphorylation of ribosomal protein S6 (immunoperoxidase staining of SN sections after AAV transduction)” value read?
The value was “hp70S6K(CA) induces a detectable increase in phosphorylation of ribosomal protein S6”.
